Experimental data: publication PMC2806950

Molecular target: T1, Ocr (overcome classical restriction) protein of bacteriophage T7, unmodified (bacteriophage T7), P03775
T1 chain: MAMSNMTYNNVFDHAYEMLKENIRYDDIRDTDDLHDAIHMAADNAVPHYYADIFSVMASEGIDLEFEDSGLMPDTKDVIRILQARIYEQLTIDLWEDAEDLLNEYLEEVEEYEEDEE
Experiment: native gel or EMSA; blue native PAGE (NativePAGE Novex 4-16% Bis-Tris) of unmodified Ocr; also native 15% PAGE, non-denaturing reducing conditions
Details: remark: other sources report otherwise

B1: Ocr (overcome classical restriction) protein of bacteriophage T7, unmodified, P03775 1-117 (natural protein)
chain: MAMSNMTYNNVFDHAYEMLKENIRYDDIRDTDDLHDAIHMAADNAVPHYYADIFSVMASEGIDLEFEDSGLMPDTKDVIRILQARIYEQLTIDLWEDAEDLLNEYLEEVEEYEEDEE
Which stoichiometry N does the source give for B1 here?
The stoichiometry N was 4.
